Experimental data as given in the supplement of paper PMC10065799, “High-throughput profiling of sequence recognition by tyrosine kinases and SH2 domains using bacterial peptide display” (eLife, 2023).

How the values were obtained:
AncSZ = test: phosphorylation enrichment, bacterial display (enrichment ratio); higher = better substrate or ligand; peptides without Tyr show the background
EPHB1 = EPHB1 (UniProt P54762); test: as above
EPHB2 = EPHB2 (UniProt P29323); test: as above
FGFR1 = FGFR1 (UniProt P11362); test: as above
Sequence of FGFR1 (P11362 whole entry, looked up): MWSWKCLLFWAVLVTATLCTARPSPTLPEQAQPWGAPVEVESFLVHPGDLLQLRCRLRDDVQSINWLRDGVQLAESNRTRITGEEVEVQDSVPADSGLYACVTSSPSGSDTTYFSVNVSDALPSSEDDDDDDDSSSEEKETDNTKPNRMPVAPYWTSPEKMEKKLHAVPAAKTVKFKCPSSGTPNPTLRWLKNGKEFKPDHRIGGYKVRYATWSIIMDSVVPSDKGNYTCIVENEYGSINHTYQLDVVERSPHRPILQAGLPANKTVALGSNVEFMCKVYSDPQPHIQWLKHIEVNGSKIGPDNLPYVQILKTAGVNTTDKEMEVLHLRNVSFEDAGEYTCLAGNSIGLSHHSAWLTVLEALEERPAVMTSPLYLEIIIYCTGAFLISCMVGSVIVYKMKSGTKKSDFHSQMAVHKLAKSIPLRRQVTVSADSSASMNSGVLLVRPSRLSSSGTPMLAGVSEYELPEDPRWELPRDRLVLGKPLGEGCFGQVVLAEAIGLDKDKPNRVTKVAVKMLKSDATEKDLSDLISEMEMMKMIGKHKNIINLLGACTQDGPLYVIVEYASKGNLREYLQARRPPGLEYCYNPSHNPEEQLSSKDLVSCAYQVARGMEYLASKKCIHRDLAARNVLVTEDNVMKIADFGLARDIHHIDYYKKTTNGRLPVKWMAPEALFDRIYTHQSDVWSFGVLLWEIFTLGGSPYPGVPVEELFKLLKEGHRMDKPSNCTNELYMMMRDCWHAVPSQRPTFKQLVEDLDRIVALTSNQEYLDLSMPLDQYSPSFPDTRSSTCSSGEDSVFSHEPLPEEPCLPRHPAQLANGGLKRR

FGFR3 = FGFR3 (UniProt P22607); test: as above
Sequence of FGFR3 (P22607 whole entry, looked up): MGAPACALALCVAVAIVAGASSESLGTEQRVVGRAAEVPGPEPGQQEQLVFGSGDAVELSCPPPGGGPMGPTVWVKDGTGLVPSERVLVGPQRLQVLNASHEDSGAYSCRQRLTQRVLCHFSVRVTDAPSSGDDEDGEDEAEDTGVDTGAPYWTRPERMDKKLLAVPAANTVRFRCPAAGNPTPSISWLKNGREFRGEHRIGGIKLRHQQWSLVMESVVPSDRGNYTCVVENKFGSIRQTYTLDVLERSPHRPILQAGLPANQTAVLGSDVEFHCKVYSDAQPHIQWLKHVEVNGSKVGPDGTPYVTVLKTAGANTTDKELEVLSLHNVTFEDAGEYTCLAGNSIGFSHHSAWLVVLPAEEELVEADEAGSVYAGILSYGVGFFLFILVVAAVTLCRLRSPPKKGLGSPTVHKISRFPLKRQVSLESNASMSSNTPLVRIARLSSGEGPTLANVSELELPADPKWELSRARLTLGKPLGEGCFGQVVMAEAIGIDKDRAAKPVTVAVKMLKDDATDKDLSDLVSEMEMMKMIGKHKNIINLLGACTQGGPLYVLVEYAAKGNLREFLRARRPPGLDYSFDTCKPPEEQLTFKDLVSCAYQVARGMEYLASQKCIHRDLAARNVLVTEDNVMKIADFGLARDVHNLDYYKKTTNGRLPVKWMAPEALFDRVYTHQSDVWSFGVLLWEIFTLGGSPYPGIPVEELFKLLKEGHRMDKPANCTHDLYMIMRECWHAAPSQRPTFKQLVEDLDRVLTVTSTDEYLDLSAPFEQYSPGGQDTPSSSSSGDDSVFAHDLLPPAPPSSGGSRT

Fer (mouse) = test: as above
Fes = Fes (UniProt P07332); test: as above
Sequence of Fes (P07332 whole entry, looked up): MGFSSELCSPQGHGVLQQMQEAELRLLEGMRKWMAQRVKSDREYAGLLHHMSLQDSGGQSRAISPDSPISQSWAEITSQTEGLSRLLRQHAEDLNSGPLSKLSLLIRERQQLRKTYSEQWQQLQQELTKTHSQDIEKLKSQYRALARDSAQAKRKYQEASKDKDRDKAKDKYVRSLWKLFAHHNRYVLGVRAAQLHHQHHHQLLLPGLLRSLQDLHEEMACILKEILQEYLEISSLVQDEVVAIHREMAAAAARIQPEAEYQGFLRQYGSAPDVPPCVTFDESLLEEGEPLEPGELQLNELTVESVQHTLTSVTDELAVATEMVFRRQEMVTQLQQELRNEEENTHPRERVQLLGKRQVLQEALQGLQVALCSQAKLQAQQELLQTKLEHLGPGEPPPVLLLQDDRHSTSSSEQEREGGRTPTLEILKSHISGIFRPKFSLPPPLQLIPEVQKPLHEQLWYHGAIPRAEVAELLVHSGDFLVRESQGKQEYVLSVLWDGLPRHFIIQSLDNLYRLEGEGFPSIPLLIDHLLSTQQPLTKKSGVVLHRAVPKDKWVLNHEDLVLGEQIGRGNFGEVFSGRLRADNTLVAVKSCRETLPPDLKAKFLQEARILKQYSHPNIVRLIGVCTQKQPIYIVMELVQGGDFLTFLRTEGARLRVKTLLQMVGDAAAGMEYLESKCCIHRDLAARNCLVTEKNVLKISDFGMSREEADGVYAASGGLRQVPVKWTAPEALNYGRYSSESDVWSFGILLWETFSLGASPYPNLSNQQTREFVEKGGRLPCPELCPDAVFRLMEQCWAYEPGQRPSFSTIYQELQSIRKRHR

Fyn = Fyn (UniProt P06241); test: as above
Hck = Hck (UniProt P08631); test: as above
Sequence of Hck (P08631 whole entry, looked up): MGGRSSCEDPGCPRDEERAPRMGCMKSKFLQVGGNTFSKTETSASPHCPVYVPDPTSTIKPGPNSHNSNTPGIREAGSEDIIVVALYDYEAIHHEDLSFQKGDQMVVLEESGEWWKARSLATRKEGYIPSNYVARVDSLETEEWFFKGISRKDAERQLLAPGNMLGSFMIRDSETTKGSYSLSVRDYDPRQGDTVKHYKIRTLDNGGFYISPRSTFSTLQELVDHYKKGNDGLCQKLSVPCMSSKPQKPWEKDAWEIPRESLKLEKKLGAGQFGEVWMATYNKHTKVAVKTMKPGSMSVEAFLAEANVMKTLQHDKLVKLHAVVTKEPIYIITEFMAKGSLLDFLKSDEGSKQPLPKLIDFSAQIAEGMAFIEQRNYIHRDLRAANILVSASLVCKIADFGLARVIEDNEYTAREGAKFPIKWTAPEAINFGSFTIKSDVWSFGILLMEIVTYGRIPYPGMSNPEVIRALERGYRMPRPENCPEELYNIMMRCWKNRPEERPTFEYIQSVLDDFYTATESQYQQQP

Jak2 = Jak2 (UniProt O60674); test: as above
Sequence of Jak2 (O60674 whole entry, looked up): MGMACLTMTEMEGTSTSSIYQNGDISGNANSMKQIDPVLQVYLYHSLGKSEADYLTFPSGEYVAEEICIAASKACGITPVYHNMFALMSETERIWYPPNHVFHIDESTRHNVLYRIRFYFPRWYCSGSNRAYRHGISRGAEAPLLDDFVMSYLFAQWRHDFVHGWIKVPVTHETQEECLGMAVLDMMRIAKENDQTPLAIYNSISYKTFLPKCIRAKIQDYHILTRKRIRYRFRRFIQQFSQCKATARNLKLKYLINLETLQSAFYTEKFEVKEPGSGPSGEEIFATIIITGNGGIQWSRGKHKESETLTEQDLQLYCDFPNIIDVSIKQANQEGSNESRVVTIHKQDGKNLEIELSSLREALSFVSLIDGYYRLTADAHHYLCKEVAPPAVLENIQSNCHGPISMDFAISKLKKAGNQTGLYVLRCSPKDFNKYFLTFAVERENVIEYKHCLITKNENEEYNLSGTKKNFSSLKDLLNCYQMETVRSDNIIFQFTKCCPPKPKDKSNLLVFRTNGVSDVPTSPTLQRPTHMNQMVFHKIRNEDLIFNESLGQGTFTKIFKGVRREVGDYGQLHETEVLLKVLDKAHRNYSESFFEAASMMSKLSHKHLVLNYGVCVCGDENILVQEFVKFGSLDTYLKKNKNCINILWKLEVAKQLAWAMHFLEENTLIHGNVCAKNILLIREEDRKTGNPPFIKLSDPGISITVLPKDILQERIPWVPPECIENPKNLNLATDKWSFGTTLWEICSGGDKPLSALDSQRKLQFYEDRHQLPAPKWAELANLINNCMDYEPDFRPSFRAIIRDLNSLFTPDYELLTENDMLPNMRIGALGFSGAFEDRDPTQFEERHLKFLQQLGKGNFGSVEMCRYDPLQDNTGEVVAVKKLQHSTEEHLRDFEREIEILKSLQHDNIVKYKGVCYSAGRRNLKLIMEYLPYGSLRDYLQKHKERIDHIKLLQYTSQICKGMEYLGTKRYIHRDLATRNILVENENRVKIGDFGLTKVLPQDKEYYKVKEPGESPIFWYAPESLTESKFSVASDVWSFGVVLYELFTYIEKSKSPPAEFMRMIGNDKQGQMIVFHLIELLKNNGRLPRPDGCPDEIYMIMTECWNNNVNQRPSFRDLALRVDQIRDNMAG

MERTK = MERTK (UniProt Q12866); test: as above
c-Abl (mouse) = test: as above
c-Src = test: as above
Grb2 SH2 = Grb2 SH2 (UniProt P62993); test: SH2 binding enrichment of the phosphorylated peptide, bacterial display (enrichment ratio); higher = better substrate or ligand; peptides without Tyr show the background
SHP2-C SH2 = test: as above
c-Src SH2 = test: as above
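Wherever SH2 binding enrichment of the phosphorylated peptide, bacterial display is given: peptide library displayed on the E. coli surface as eCPX fusions, selected cells deep-sequenced, score is each peptide's frequency after selection divided by its frequency in the input.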
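Wherever phosphorylation enrichment, bacterial display is given: 11-residue human phosphosite peptides and single-mutation variants displayed on the E. coli surface, counted by deep sequencing, each peptide's frequency after selection divided by its frequency in the unselected input library; frequency after pTyr selection over input frequency; kinase dosed for 20-30% of maximal phosphorylation in three min.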

Sequence of EPHB1 (P54762 whole entry, looked up): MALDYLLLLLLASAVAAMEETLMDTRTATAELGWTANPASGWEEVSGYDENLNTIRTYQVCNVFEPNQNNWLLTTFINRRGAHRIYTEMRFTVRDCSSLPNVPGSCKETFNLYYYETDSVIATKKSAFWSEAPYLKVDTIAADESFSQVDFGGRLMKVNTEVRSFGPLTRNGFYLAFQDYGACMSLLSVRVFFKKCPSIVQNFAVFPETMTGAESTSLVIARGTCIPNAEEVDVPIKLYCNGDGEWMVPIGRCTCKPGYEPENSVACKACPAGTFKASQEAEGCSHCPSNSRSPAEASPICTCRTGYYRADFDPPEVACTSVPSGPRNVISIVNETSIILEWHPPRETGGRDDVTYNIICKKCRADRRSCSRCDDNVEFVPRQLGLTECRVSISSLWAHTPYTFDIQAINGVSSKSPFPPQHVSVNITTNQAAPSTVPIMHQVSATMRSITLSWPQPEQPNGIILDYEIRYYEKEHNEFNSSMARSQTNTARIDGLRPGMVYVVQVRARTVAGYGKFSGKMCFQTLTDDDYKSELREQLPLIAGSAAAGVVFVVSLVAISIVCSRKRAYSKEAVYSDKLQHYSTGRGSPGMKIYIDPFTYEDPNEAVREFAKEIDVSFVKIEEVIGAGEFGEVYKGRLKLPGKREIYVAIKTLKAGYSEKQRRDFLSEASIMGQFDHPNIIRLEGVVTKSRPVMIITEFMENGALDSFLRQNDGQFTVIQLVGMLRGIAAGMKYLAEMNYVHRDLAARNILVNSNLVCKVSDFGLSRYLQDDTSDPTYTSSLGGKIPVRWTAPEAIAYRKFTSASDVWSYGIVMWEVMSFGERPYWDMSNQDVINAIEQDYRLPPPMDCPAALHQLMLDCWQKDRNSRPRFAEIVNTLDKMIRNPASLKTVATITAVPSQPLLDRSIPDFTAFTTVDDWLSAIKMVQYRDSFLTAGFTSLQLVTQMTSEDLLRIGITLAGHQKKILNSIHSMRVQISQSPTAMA

Sequence | SH2 binding enrichment (Grb2 SH2) | SH2 binding enrichment (SHP2-C SH2) | SH2 binding enrichment (c-Src SH2) | phosphorylation enrichment (AncSZ) | phosphorylation enrichment (EPHB1) | phosphorylation enrichment (EPHB2) | phosphorylation enrichment (FGFR1) | phosphorylation enrichment (FGFR3) | phosphorylation enrichment (Fer (mouse)) | phosphorylation enrichment (Fes) | phosphorylation enrichment (Fyn) | phosphorylation enrichment (Hck) | phosphorylation enrichment (Jak2) | phosphorylation enrichment (MERTK) | phosphorylation enrichment (c-Abl (mouse)) | phosphorylation enrichment (c-Src)
FMMMRYSQNIR [SDAD1_Y656_V660I] | 1.35 | 1.36 | 0.883 | 1.17 | 0.77 | 1.23 | 0.663 | 0.795 | 0.509 | 1.3 | 0.513 | 0.53 | 0.955 | 0.414 | 0.61 | 0.397
DAHFTYSRYPW [LY75_Y888_D884A] | 0.817 | 0.761 | 0.51 | 1.16 | 2.76 | 5.6 | 0.716 | 0.641 | 0.5 | 0.885 | 2.4 | 3.76 | 1.02 | 1.27 | 1.19 | 3.24
IVRSLYEDPED [VHL_Y185_L188P] | 0.823 | 0.815 | 3.15 | 1.12 | 0.748 | 0.698 | 0.502 | 0.707 | 0.738 | 1.02 | 0.455 | 0.544 | 0.878 | 0.424 | 0.619 | 0.586
ESAAIYNPVIY [RHO_Y301_K296E] | 0.758 | 0.553 | 0.464 | 1.01 | 0.995 | 0.944 | 1.99 | 1.88 | 17.5 | 1.26 | 8.88 | 9.21 | 0.793 | 3.45 | 1.15 | 7.21
KASVDYIRKLQ [MITF_Y360] | 0.838 | 0.899 | 0.454 | 0.765 | 0.393 | 0.409 | 0.364 | 0.482 | 0.351 | 0.651 | 0.336 | 0.351 | 0.589 | 0.32 | 0.503 | 0.345
GGDGSYVSVPL [TNNI3K_Y425_S430L] | 0.887 | 0.682 | 0.631 | 0.692 | 0.414 | 0.509 | 0.5 | 0.573 | 0.486 | 0.599 | 0.406 | 0.437 | 0.558 | 0.474 | 0.471 | 0.38
FKDGQYWIRGQ [ACSF3_Y466_R471Q] | 0.856 | 0.688 | 0.592 | 0.831 | 0.522 | 0.598 | 0.598 | 0.663 | 0.32 | 0.876 | 0.477 | 0.915 | 0.507 | 0.385 | 0.433 | 0.426
TKQLTYEEQDL [PIK3C3_Y310] | 0.786 | 0.686 | 0.541 | 1.27 | 0.655 | 0.653 | 0.576 | 0.791 | 0.649 | 1.38 | 0.529 | 0.552 | 1.19 | 0.483 | 1.01 | 0.539
PVADRYDQSFE [MAPK14_Y323_P322R] | 0.926 | 0.838 | 0.945 | 0.867 | 0.475 | 0.695 | 0.653 | 0.796 | 0.518 | 1.5 | 0.589 | 0.441 | 1.1 | 0.448 | 0.844 | 0.717
GLDGSYLLRFS [SH2D1A_Y29_D33Y_YF] | 0.885 | 0.937 | 0.944 | 0.839 | 0.44 | 0.518 | 0.385 | 0.546 | 0.424 | 0.965 | 0.435 | 0.408 | 0.843 | 0.414 | 0.644 | 0.465
HRAVEYLLMGI [RAD23A_Y197_T200M] | 1.35 | 1.55 | 1.11 | 0.976 | 0.479 | 0.419 | 1.19 | 1.02 | 0.351 | 0.802 | 0.429 | 0.552 | 0.921 | 0.471 | 0.665 | 0.441
GVASDYKCIDP [VPS13B_Y1991] | 0.888 | 0.524 | 0.65 | 1.08 | 0.739 | 0.589 | 0.724 | 0.827 | 0.587 | 1.01 | 0.548 | 0.747 | 0.703 | 0.365 | 0.496 | 0.427
ISIFRYAKGQP [MPZ_Y82_H81R] | 0.843 | 0.534 | 0.596 | 0.791 | 0.461 | 0.577 | 0.486 | 0.685 | 0.414 | 0.937 | 0.464 | 0.402 | 0.969 | 0.49 | 0.574 | 0.404
EFISEFCGEII [EZH2_Y641_Y641F] | 1.24 | 0.895 | 0.743 | 1.52 | 0.566 | 0.719 | 0.574 | 0.885 | 0.591 | 1.42 | 0.507 | 0.518 | 1.44 | 0.638 | 1.22 | 0.618
LKLIQYHLTQQ [AKAP4_Y554] | 1.03 | 1.31 | 0.762 | 0.902 | 0.88 | 0.774 | 0.932 | 0.879 | 0.711 | 1.34 | 0.5 | 0.534 | 1.28 | 1.15 | 0.646 | 0.599

More lines, main results first:

SH2 binding enrichment (Grb2 SH2) | SH2 binding enrichment (SHP2-C SH2) | SH2 binding enrichment (c-Src SH2) | Sequence | phosphorylation enrichment (AncSZ) | phosphorylation enrichment (EPHB1) | phosphorylation enrichment (EPHB2) | phosphorylation enrichment (FGFR1) | phosphorylation enrichment (FGFR3) | phosphorylation enrichment (Fer (mouse)) | phosphorylation enrichment (Fes) | phosphorylation enrichment (Fyn) | phosphorylation enrichment (Hck) | phosphorylation enrichment (Jak2) | phosphorylation enrichment (MERTK) | phosphorylation enrichment (c-Abl (mouse)) | phosphorylation enrichment (c-Src)
0.841 | 0.628 | 0.677 | KCLAVYQAGAR [APOE_Y180_R176C] | 0.737 | 0.597 | 0.646 | 0.47 | 0.557 | 0.487 | 0.742 | 0.646 | 0.812 | 0.744 | 0.478 | 0.734 | 2.45
0.808 | 0.658 | 1.24 | TLMNAYSSCSH [KIF11_Y231_R234C] | 0.702 | 0.465 | 0.566 | 0.436 | 0.566 | 0.599 | 0.803 | 0.462 | 0.557 | 0.642 | 0.496 | 0.597 | 0.45
2.31 | 2.19 | 1.76 | RLLVVYPWTQK [HBG1_Y36_R41K] | 0.842 | 0.581 | 0.529 | 0.473 | 0.69 | 0.468 | 0.926 | 0.508 | 0.547 | 0.63 | 0.32 | 0.617 | 0.388
1.01 | 0.973 | 0.477 | FIATQYSLRPR [LBR_Y166_YF] | 0.635 | 0.39 | 0.518 | 0.532 | 0.471 | 0.399 | 0.671 | 0.458 | 0.454 | 0.551 | 0.506 | 0.525 | 0.464
0.852 | 0.523 | 0.744 | ENGPFYASFPP [GDAP2_Y488_T489A_YF] | 0.819 | 9.38 | 10.4 | 3.05 | 2.07 | 7.77 | 0.858 | 9.94 | 8.77 | 0.951 | 11.5 | 14.9 | 7.57
1.47 | 1.55 | 1.34 | VLSIDYYFPPQ [AR_Y552_P549S] | 6.35 | 3.13 | 3.2 | 13.3 | 10.8 | 0.605 | 1.09 | 1.03 | 0.881 | 6.81 | 3.5 | 1.24 | 2.17
0.776 | 0.714 | 0.44 | DHLASYLDKVR [KRT10_Y160_R156H] | 0.585 | 0.369 | 0.477 | 0.46 | 0.469 | 0.363 | 0.677 | 0.406 | 0.439 | 0.639 | 0.453 | 0.473 | 0.457
2.08 | 2.26 | 1.47 | RLLVVYPSTQR [HBB_Y36_W38S] | 1.19 | 0.602 | 0.931 | 1.07 | 0.94 | 0.7 | 1.75 | 0.802 | 1.17 | 1.04 | 0.753 | 0.899 | 0.646
0.612 | 0.519 | 0.407 | RQSRNYLGGFA [SYK_Y47] | 0.841 | 0.316 | 0.56 | 0.329 | 0.386 | 0.404 | 0.562 | 0.597 | 0.483 | 0.436 | 1.75 | 0.684 | 0.69
0.923 | 0.575 | 0.524 | PTQLPYDHKWE [KIT_Y578] | 0.859 | 0.716 | 0.631 | 0.581 | 0.696 | 0.601 | 1.33 | 0.491 | 0.87 | 0.68 | 0.449 | 0.655 | 0.618
0.964 | 8.86 | 22.2 | LPVHFYSHVEH [PYGM_Y204_G205S] | 1.13 | 1.05 | 0.878 | 0.651 | 1.29 | 1.26 | 1.63 | 0.689 | 0.852 | 1.71 | 0.859 | 1.2 | 1.21
0.797 | 0.616 | 0.435 | EDKFMYLEFPQ [PTEN_Y240_F241L] | 1.71 | 0.879 | 0.756 | 2.44 | 2.26 | 0.673 | 1.34 | 0.889 | 1.01 | 1.38 | 0.664 | 1.14 | 1.2
1.02 | 0.748 | 0.662 | LTTPTYGDLNH [TUBB_Y222] | 1.41 | 1.14 | 1.44 | 1.03 | 1.11 | 1.07 | 1.47 | 5.58 | 4.7 | 0.84 | 0.836 | 0.702 | 3.12
0.962 | 0.911 | 0.644 | NSRYTYKLEVK [USH2A_Y3747] | 1.12 | 0.618 | 0.689 | 0.427 | 0.687 | 0.505 | 1.29 | 0.437 | 0.478 | 0.982 | 0.396 | 0.795 | 0.42
0.772 | 0.792 | 0.335 | LQLLGDRPVYS [CHST6_Y358_Y358D] | 1.88 | 2.17 | 2.16 | 1.63 | 1.64 | 1.53 | 3.27 | 1.7 | 1.37 | 2.78 | 0.683 | 1.3 | 1.35
0.985 | 0.827 | 0.626 | QERPEYWDQET [HLA-A_Y83_G80R] | 1.81 | 0.693 | 0.702 | 0.727 | 0.915 | 1.14 | 1.58 | 0.646 | 0.696 | 1.56 | 0.566 | 1.14 | 0.554
0.652 | 0.771 | 0.408 | LDTIQYSKHPP [SQSTM1_Y433] | 1.01 | 0.778 | 0.998 | 0.6 | 1.08 | 0.583 | 1.73 | 0.917 | 0.695 | 1.07 | 0.792 | 0.75 | 0.649
0.795 | 0.516 | 0.706 | PVQAAYQKVVA [HBB_Y131] | 0.41 | 0.694 | 0.536 | 0.645 | 0.591 | 0.557 | 0.438 | 0.418 | 0.505 | 0.37 | 0.716 | 0.716 | 0.471
